Assay [1] concerns the target Remicade® (infliximab, reference medicinal product). Briefly: ELISA. For orientation: In an ELISA, binding on a coated surface is turned into a signal by an enzyme label.
Assay [2] concerns the target CT-P13 (Remsima®, infliximab biosimilar). As to the kind of experiment: ELISA.
A further assay addresses FcRn (UniProt P55899). Briefly: SPR. (In general: In SPR one partner is held on a chip, and binding of the other changes the refractive index at the surface.)

The text below walks through data of PMC4622713.

UniProt P55899, sequence (P55899 whole entry, looked up, tested part not stated): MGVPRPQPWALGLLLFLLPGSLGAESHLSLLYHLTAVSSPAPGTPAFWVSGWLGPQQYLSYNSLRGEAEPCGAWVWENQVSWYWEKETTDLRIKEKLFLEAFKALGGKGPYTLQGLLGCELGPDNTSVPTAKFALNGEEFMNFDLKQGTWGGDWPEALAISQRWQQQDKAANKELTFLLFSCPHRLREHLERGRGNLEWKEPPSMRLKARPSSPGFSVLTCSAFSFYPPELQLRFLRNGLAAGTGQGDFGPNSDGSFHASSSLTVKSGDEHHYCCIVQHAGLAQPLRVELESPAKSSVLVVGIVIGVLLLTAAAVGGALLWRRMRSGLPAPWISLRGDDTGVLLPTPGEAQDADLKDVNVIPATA

In the case of C1q (complex), the relative binding affinity, average (%) in assay [1] amounted to 98%; in assay [2], 100%. In the case of “CT-P13 (Remsima®, infliximab biosimilar) (antibody)”, the relative binding affinity, average (%) in the assay with FcRn was found to be 101%.

In the assay with FcRn, “Remicade® (infliximab, reference medicinal product) (antibody)” displayed a relative binding affinity, average (%) of 97%.
